Assay results published in article PMC8062265.

Target: Recombinant 1-158 a.a. domain of TMCC3 protein (human) (UniProt Q9ULS5)
Test: Luminex immunosandwich assay; cell-free; protein coupled onto Luminex beads, incubated with various concentrations of recombinant AKT, washed, detected with fluorescence labeled anti-AKT antibody (MFI, n = 4)

Chain of UniProt Q9ULS5 (Q9ULS5 1-158): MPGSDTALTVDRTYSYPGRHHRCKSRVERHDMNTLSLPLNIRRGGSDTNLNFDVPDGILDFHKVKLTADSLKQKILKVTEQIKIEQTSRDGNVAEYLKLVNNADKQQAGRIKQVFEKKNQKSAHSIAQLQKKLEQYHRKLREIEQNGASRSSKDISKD

Kd: 1.67 nM
Substance: recombinant AKT (from UniProt P31749 1-480) (natural protein)
